Assay: In vivo hematological toxicity, blood cell counting
Design: species or system hSIRPA/hCD47 (C57 background) mice
Conditions: for PLT Count Mean / RBC Count Mean: 5mg/kg single intraperitoneal dose
Protocol: hSIRPA/hCD47 (C57 background) mice were randomly divided into 4 groups based on body weight, with 3 mice per group. The hematological toxicity of 70H1.IgG1.Y61C+20K and 70H1.IgG1.Y61C+40K was studied via intraperitoneal injection.
The experimental groups were divided as follows: • 70H1.IgG1.Y61C+20K (5 mg/kg) group, • 70H1.IgG1.Y61C+40K (10 mg/kg) group, • 70H1.IgG1.Y61C+40K (20 mg/kg) group, • 70H1.IgG1.Y61C+40K (30 mg/kg) group.
After grouping, a single dose of the corresponding antibody was administered intraperitoneally to the mice. Blood cell counting was performed on the mice at D0 (pre-dose), D2, D5, D7, D9, and D12.

B1: CD47 TMEAbody: CD47 TMEAbody conjugated with PEG of approximately 20K molecular weight (i.e., PEG20K) (conjugate)
VH: QQQLEESGGGLVKPEGSLTLTCTASGFSFSSGYDMCWVRQAPGRGLEWIACIYTRSSGGTCYASWAKGRFTISKTSSTVDLRMTSLTAADTATYFCAGGRSSYRLNLWGQGALVTVSS
VL: DVVMTQTPSPVEAAVGGTVTIKCQASQSISNELSWYQQKPGQPPKLLIYRASTLESGVSSRFKGSGSGTEFTLTISDLECADAATYYCQSTFYGDYGNAFGGGTEVVVK
PLT Count Mean (D0 (pre-dose)): 1668.33 10^9/L | RBC Count Mean (D0 (pre-dose)): 8.53 10^12/L | PLT Count Mean (D2): 1406.33 10^9/L | RBC Count Mean (D2): 6.56 10^12/L | PLT Count Mean (D5): 1142.33 10^9/L | RBC Count Mean (D5): 7.48 10^12/L | PLT Count Mean (D7): 1435.33 10^9/L | RBC Count Mean (D7): 9.62 10^12/L | PLT Count Mean (D9): 1356.00 10^9/L | RBC Count Mean (D9): 9.55 10^12/L | PLT Count Mean (D12): 1351.00 10^9/L | RBC Count Mean (D12): 9.45 10^12/L | change in red blood cells (5 mg/kg, D2 post-administration): reversible decrease in red blood cells | change in platelets (5 mg/kg, D5 post-administration): reversible decrease in platelets

From patent publication EP4793287A1, “TUMOR MICROENVIRONMENT SPECIFICALLY ACTIVATED CD47 ANTIBODY” (Affinity (Shanghai) Biopharmaceutical Co., Ltd., priority 2023, dated 2025)
